Results taken from the supplement of paper PMC10567573.

B1: PPEF2 (parent)
chain: DHSGFISLDEFRQTWKLFSSHMNI

Variants of: B1
Assay: protein stability index of a GFP-peptide fusion (GPS, HEK-293T) (PSI 1-6); higher = more stable
Settings: c terminus: a fixed tail appended
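Note: lentivirally expressed fusions sorted by FACS into six bins by GFP to DsRed ratio, PSI derived from sequencing read proportions per bin multiplied by bin number.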

Variant	protein stability index
DHSWFISLDEFRQTWKLFSSHMNI [G4W]	1.98
DHSGFISLDEFRATWKLFSSHMNI [Q13A]	1.73
DHSGFISLDEFRQTTKLFSSHMNI [W15T]	2.58
DHSGFISGDEFRQTWKLFSSHMNI [L8G]	2.13
DHSGFISLDEFRQTWALFSSHMNI [K16A]	1.88
DHVGFISLDEFRQTWKLFSSHMNI [S3V]	1.46
DHSGFISLDEFRQTWKLFSNHMNI [S20N]	1.71
DHSGFISLDEPRQTWKLFSSHMNI [F11P]	1.85
DHSGFISLDEFRQTWKLFSSHMYI [N23Y]	2.57
DHSGFISLSEFRQTWKLFSSHMNI [D9S]	1.84
DHSGFIALDEFRQTWKLFSSHMNI [S7A]	2.06
DHSGFISLDEIRQTWKLFSSHMNI [F11I]	1.79
DHSGFISLDEFRDTWKLFSSHMNI [Q13D]	1.61
AHSGFISLDEFRQTWKLFSSHMNI [D1A]	1.51
DHSGFISLDEFRQTWKLFSSHMNL [I24L]	1.9
DHSGFISLDEFIQTWKLFSSHMNI [R12I]	2.73
DHSGFISLDYFRQTWKLFSSHMNI [E10Y]	1.82
DQSGFISLDEFRQTWKLFSSHMNI [H2Q]	1.75
DHSGFISLDEFRQTWKSFSSHMNI [L17S]	2
DHSGFISLDKFRQTWKLFSSHMNI [E10K]	1.79
DHSGFISLDEFRQTWKLMSSHMNI [F18M]	1.64
DCSGFISLDEFRQTWKLFSSHMNI [H2C]	1.75
DHSGFISLDEFRQTWKLFSSHCNI [M22C]	2.98
DHSGFISLDEFRQTWKLFSSHANI [M22A]	1.88

Variant	protein stability index
DHSGFCSLDEFRQTWKLFSSHMNI [I6C]	1.86
DGSGFISLDEFRQTWKLFSSHMNI [H2G]	1.43
DHSGFISQDEFRQTWKLFSSHMNI [L8Q]	2.01
DHSGFISLDEFRQTWKLFSSHMDI [N23D]	1.69
DHSGFISLDEFRQTWKLFSSHMNT [I24T]	1.89
DHSGFISLDEFRQTWKLFSSHVNI [M22V]	1.51
DHSGFIYLDEFRQTWKLFSSHMNI [S7Y]	1.97
DNSGFISLDEFRQTWKLFSSHMNI [H2N]	1.14
DHSGFISLDEFGQTWKLFSSHMNI [R12G]	2.79
DHHGFISLDEFRQTWKLFSSHMNI [S3H]	1.69
DHSGFISLDEFRQTWKLRSSHMNI [F18R]	1.8
DHRGFISLDEFRQTWKLFSSHMNI [S3R]	2.58
DHSGFISLDEFRQTWKLFSSWMNI [H21W]	2.02
DHSGFQSLDEFRQTWKLFSSHMNI [I6Q]	1.91
DHSGFISLDEFVQTWKLFSSHMNI [R12V]	2.88
DHSGFISLDEFRQTWFLFSSHMNI [K16F]	1.94
DHSEFISLDEFRQTWKLFSSHMNI [G4E]	2.16
DHSGFISLDEFRQTIKLFSSHMNI [W15I]	1.77
DHSGFISLDEFRQTWKLFSSHENI [M22E]	2.19
DHSGFISLDEFRQTWKLFSHHMNI [S20H]	1.63
DHFGFISLDEFRQTWKLFSSHMNI [S3F]	2.23
DHSGFISLDEFRQTWKLFSSHLNI [M22L]	1.79
DHSGFIGLDEFRQTWKLFSSHMNI [S7G]	2.95
